Data from US8933021B2, “Insulin derivative” (Novo Nordisk A/S, priority 2006, dated 2015).

How the values were obtained:
human insulin receptor = human insulin receptor (Homo sapiens, UniProt P06213); assay: Insulin receptor binding, SPA antibody capture assay
Protocol: SPA-PVT antibody-binding beads, anti-mouse reagent (Amersham Biosciences, Cat No. PRNQ0017) were mixed with 25 ml of binding buffer (100 mM HEPES pH 7.8; 100 mM sodium chloride, 10 mM MgSO4, 0.025% Tween-20). […] A total of 100 μl was then added and a dilution series is made from appropriate samples. To the dilution series was then added 100 μl of reagent mix and the samples were incubated for 16 hours while gently shaken. The phases were the then separated by centrifugation for 1 min and the plates counted in a Topcounter. The binding data were fitted using the nonlinear regression algorithm in the GraphPad Prism 2.01 (GraphPad Software, San Diego, Calif.).

[1] = Hydrophobicity (hydrophobic index k'rel) relative to human insulin by isocratic RP-HPLC; assay type: physicochemical
Protocol: The elution was monitored by following the UV absorption of the eluate at 214 nm. Void time, t0, was found by injecting 0.1 mM sodium nitrate.

[2] = Self-association by size exclusion chromatography (SEC), Kav; assay type: physicochemical
Protocol: The ability of the insulin derivatives of the invention to self-associate into large, but soluble complexes is analysed using SEC (size exclusion chromatography):
The following equation is used to determine the Kav for the derivative: Kav=(t−t0)/(Vt/(f+td−t0)) Where t is the retention time for a given peak, t0 is the retention time for Blue dextran, Vt is the total column volume (here 2.4 ml), f is the flow (here 0.04 ml/min), and td is the retention time for Blue dextran without the column in the system.

[3] = recombinant human insulin receptor-exon 11, SPA
[4] = LiChrosorb RP18, 40° C., pH 7.3, HI = 1

Sequence of human insulin receptor (P06213 28-746 isoform P06213-2 limits assumed): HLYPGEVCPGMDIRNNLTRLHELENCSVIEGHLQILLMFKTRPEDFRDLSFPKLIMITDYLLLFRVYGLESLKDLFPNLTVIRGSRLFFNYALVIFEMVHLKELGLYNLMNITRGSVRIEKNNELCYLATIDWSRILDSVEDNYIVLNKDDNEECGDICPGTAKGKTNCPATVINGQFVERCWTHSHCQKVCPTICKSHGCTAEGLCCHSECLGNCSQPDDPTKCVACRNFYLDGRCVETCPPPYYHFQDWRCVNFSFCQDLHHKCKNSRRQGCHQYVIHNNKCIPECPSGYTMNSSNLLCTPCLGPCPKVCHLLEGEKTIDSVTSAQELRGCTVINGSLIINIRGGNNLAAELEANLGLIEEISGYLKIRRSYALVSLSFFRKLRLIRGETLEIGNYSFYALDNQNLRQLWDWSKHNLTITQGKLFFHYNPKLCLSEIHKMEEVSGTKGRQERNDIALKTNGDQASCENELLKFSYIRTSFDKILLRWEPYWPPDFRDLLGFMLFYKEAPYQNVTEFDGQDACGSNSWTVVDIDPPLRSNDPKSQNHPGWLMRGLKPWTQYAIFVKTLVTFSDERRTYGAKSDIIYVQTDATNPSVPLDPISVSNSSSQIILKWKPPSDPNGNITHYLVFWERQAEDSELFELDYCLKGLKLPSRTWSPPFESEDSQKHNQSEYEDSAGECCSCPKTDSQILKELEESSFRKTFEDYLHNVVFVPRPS
Sequence of human insulin receptor (P06213 763-1382 partner limits assumed): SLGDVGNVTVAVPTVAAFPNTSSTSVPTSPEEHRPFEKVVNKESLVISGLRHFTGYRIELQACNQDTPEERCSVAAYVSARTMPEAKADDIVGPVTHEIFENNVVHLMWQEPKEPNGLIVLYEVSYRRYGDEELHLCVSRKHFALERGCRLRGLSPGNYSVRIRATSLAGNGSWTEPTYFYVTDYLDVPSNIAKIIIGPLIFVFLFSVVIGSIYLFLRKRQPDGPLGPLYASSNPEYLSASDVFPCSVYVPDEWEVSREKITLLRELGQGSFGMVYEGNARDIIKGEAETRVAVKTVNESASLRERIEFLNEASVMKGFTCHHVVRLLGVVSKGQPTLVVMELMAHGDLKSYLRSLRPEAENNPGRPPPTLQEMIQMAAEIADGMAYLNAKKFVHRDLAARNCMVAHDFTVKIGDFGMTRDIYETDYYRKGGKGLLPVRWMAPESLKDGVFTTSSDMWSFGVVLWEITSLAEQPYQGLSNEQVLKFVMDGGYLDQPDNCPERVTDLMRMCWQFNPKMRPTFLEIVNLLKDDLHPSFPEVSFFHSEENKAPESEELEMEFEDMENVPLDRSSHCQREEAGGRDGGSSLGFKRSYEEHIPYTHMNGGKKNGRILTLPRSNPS

Substance | Insulin receptor affinity relative to human insulin (human insulin receptor; class symbol) | Insulin receptor affinity relative to human insulin (human insulin receptor; [3]) | Hydrophobicity relative to human insulin [1, 4] | Hydrophobicity relative to human insulin ([1]; class symbol, HI = 1) | Self-association: Kav ([2]; SEC Superose 6, 37° C., 0.6 mM derivative, 2.1 Zn2+/hexamer, 16 mM phenol, pH 7.8, one value per peak) | Self-association: % area of peak ([2]; area of the peak whose Kav is in the cell above) | Self-association: Kav ([2]; class symbol)
N^εB29-(3-(3-{4-[3-(7-carboxyheptanoylamino)propoxy]butoxy}propylcarbamoyl)-propionyl-γ-glutamylamide) desB30 human Insulin [Example 11] | ++ (5-50%: ++) | 43% | 0.435 | +++ (k'rel < 1: +++) | – | – | –
N^εB29-ω-carboxy-pentadecanoyl-γ-L-aspartylamide desB30 human insulin [Example 6] | ++ (5-50%: ++) | 33% | – | – | – | – | –
N^εB29-ω-carboxy-undecanoyl-δ-amino-butanoyl desB30 human insulin [Example 13] | +++ (>50%: +++) | 59% | 0.552 | +++ (k'rel < 1: +++) | 0.69 | (100%) | + (Kav ≧ 0.55: +)
